Source: PMC9245421, “The VvWRKY37 Regulates Bud Break in Grape Vine Through ABA-Mediated Signaling Pathways”

T1: VvABI5-HIS (grape vine, UniProt F6HQA3 1-409)
T1 sequence: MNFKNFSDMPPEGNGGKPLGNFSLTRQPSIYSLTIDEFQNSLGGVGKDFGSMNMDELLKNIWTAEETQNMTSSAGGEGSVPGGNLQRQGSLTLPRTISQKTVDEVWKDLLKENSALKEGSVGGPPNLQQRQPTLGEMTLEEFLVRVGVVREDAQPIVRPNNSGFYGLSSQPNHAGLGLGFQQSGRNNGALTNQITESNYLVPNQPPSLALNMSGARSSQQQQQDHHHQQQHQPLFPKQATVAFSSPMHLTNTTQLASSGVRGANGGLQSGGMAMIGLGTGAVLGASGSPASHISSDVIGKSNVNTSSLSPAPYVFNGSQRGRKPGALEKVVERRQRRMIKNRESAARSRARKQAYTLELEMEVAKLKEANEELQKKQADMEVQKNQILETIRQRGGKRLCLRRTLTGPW

T2: VvABF2-HIS (grape vine, UniProt F6H1D1 1-447)
T2 sequence: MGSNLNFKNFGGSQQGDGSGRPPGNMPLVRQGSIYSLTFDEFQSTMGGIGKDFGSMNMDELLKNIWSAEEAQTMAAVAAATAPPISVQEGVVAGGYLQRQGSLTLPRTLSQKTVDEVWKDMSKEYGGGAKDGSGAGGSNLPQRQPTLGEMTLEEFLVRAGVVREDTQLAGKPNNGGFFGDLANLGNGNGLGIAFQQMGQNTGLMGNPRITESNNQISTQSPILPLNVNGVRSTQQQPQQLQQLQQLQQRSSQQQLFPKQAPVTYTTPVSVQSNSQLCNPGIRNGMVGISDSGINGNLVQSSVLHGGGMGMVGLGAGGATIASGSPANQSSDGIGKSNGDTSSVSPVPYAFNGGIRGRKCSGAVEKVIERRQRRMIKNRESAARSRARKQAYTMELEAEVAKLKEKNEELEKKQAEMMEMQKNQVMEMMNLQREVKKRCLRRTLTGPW

B1: W37-P1 (dsDNA)
DNA 1: CTCTCTCCCACGTGCCGACCTCACACGTGTTAGCCTCAT
DNA 2: ATGAGGCTAACACGTGTGAGGTCGGCACGTGGGAGAGAG
B2: W37-mP2 (dsDNA)
DNA 1: TCCAAATGCTTTAACATGATTTCATTTGTT
DNA 2: AACAAATGAAATCATGTTAAAGCATTTGGA
B3: W37-P2 (dsDNA)
DNA 1: TCCAAATGCTTTCACGTAATTTCATTTGTT
DNA 2: AACAAATGAAATTACGTGAAAGCATTTGGA

What was measured:
VvABI5-HIS [1] = target: T1, VvABI5-HIS; test: EMSA; EMSA: 2 ul of 5x buffer (50% glycerol, 50 mM MgCl2, 5 mM EDTA, 10 mM DTT, 500 mM KCl, 250 mM HEPES pH 7.4) in 10 ul, i.e. 1x = 10% glycerol, 10 mM MgCl2, 1 mM EDTA, 2 mM DTT, 100 mM KCl, 50 mM HEPES; 1 ul of 0.05 uM biotin probe; 24 C, 20 min; 6% native gel, 0.5x TBE; conditions: protein: recombinant; tags: His (pET32a); label: biotin; blunt
VvABF2-HIS [2] = target: T2, VvABF2-HIS; test: as above; conditions: protein: recombinant; tags: His (pET32a); label: biotin; blunt
VvABI5-HIS [3] = target: T1, VvABI5-HIS; test: competition; 100-fold unlabeled vs W37-P2; EMSA: 2 ul of 5x buffer (50% glycerol, 50 mM MgCl2, 5 mM EDTA, 10 mM DTT, 500 mM KCl, 250 mM HEPES pH 7.4) in 10 ul, i.e. 1x = 10% glycerol, 10 mM MgCl2, 1 mM EDTA, 2 mM DTT, 100 mM KCl, 50 mM HEPES; 1 ul of 0.05 uM biotin probe; 24 C, 20 min; 6% native gel, 0.5x TBE; conditions: protein: recombinant; tags: His (pET32a); blunt
VvABF2-HIS [4] = target: T2, VvABF2-HIS; test: as above; conditions: protein: recombinant; tags: His (pET32a); blunt

Binder	binding result (VvABI5-HIS [1])	binding result (VvABF2-HIS [2])	binding result (VvABI5-HIS [3])	binding result (VvABF2-HIS [4])
B1	no binding	no binding	–	–
B2	–	–	no binding	no binding
B3	binds	binds	–	–
